Experiments:
Assay in all cases: flow cytometry on Ba/F3 cells expressing the truncated PODXL2
[1] = molecular target: T1, PODXL2, positions 1 to 340 (human, UniProt O00592 23-372)
T1 construct: One of the 14 C-terminal truncations; Expressed on Ba/F3 cells; also called R340
T1 sequence: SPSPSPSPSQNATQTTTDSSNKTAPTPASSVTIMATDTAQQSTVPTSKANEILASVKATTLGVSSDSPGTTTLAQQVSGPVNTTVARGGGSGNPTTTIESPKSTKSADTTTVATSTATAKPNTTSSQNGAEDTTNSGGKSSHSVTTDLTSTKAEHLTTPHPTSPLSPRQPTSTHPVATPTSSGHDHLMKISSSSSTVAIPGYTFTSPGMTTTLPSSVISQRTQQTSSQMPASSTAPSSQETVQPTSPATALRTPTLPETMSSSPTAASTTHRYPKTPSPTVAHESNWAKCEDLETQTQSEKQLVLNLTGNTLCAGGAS
Protocol: (§1) To each sample of the cell suspension, 50 μl of the hybridoma culture supernatant or 2-μg/ml of the purified antibody (hereinafter, referred to as an “antibody solution”) was added, and the antibody was reacted with the cells. As an isotype control of the antibody solution, a wash buffer containing 2 μg/ml of each of mouse IgG1 (BioLegend, 400412), mouse IgG2a (BioLegend, 400224), and mouse IgG2b (BioLegend, 400324) was used. The hybridoma culture supernatant was reacted with the target cells at room temperature for 30 minutes, followed by centrifugation at 700×g for 2 minutes. Then, a culture supernatant was removed. Further, 100 μl of a wash buffer was added, followed by centrifugation at 700×g for 2 minutes again. A supernatant was removed. Then, the cells were washed.
(§2) Next, to the cell pellets after the washing, 50 μl of Goat anti-mouse IgG, F(ab′) 2-PE (PE=phycoerythrin, Beckman Coulter, IM0855) diluted 200-fold with a wash buffer was added as a secondary antibody for detection, and reacted in the dark at room temperature for 30 minutes. The reaction was followed by centrifugation at 700×g for 2 minutes. A supernatant was removed. Further, 100 μl of a wash buffer was added, followed by centrifugation at 700×g for 2 minutes again. A supernatant was removed. Then, the cells were washed. Thereafter, the cells were suspended in an appropriate amount of a wash buffer. The reactivity between the antibody and the cells was analyzed by a flow cytometer (Beckman Coulter, FC500 MPL).
(§3) Thereafter, by the same method as in Example 1 (4) (the virus packaging and thereafter), Ba/F3 cells containing the PODXL2 gene sequences of various chain lengths were prepared. Further, by the same method as in Example 4, the reactivity between the ACT36-27_{—}5D1 antibody and the Ba/F3 cells expressing the PODXL2 molecules of various chain lengths was analyzed by a flow cytometer (FIG. 10).

[2] = molecular target: T2, PODXL2, positions 1 to 300 (human, UniProt O00592 23-332)
T2 construct: Shortest of the 14 C-terminal truncations; Expressed on Ba/F3 cells; also called R300
T2 sequence: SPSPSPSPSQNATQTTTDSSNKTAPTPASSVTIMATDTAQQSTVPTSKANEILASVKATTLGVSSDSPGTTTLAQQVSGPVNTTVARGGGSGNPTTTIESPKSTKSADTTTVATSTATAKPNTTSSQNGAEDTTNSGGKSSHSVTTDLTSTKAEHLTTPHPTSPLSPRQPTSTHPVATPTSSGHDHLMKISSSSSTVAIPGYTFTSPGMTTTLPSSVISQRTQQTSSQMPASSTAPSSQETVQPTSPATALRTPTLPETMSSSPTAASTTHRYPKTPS
Protocol: as §1, §2, §3

[3] = molecular target: T3, PODXL2, positions 1 to 400 (human, UniProt O00592 23-432)
T3 construct: Encoded as positions 1-400 in pMX-SST and expressed on Ba/F3 cells; The vector-encoded part is not described; also called R400
T3 sequence: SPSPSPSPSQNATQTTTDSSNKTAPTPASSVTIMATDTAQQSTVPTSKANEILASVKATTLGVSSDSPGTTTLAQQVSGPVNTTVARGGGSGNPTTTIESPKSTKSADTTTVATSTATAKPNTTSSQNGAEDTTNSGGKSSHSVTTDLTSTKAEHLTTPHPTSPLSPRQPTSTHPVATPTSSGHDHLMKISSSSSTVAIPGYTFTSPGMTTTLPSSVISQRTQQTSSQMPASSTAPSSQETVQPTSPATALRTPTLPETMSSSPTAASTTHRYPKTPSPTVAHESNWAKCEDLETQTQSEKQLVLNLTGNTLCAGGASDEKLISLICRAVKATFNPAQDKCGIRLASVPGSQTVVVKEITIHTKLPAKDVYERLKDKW
Protocol: as §1, §2, §3

[4] = molecular target: T4, PODXL2, positions 1 to 360 (human, UniProt O00592 23-392)
T4 construct: One of the 14 C-terminal truncations; Expressed on Ba/F3 cells; also called R360
T4 sequence: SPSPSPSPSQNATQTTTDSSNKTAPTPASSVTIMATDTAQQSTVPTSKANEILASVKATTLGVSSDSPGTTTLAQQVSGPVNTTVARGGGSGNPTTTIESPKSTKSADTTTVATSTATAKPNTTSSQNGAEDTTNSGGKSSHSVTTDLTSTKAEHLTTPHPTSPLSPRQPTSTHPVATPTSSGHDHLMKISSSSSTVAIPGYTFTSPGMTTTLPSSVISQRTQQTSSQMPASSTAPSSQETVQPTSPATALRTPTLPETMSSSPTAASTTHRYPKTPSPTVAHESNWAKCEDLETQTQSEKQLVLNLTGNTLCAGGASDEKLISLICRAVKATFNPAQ
Protocol: as §1, §2, §3

[5] = molecular target: T5, PODXL2, positions 1 to 330 (human, UniProt O00592 23-362)
T5 construct: One of the 14 C-terminal truncations; Expressed on Ba/F3 cells; also called R330
T5 sequence: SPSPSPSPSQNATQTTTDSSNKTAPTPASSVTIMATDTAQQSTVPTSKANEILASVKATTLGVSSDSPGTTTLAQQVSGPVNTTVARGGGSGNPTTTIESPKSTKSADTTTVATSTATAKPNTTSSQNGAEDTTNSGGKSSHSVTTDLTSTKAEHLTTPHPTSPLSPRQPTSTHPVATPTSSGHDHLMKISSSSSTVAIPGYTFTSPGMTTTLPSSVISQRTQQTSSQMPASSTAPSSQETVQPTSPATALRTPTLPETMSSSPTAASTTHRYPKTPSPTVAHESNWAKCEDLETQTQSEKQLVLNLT
Protocol: as §1, §2, §3

Measured: binding result

B1: ACT36-27-5D1 antibody (antibody, V domains shown)
VH: EVQLQQSGPELVKPGASVKMSCKASGYTFTSYVMHWVKQKPGQGLEWIGYIHPYNDGIKYNEKFKGKATLTSDKSSSTAYMDLSSLTSEDSAVYYCARSWDWYFDVWAAGTTVTVSS
VL: QIVLTQSPAIMSASPGEKVSMTCSASSSVSYMHWYQQKSGTSPKRWIYDTSKLASGVPARFSGSGSGTSYSLTISSMEAEDAATYYCLQWSSNPPTFGGGTKLE
notes: also called anti-PODXL2 antibody ACT36-27-5D1; anti-ACT36-27-5D1 monoclonal antibody
no binding: all assays above

From patent US20120107364A1 (ACTGEN, published 2012)
